Article PMC8387475, “Combined intermittent fasting and ERK inhibition enhance the anti-tumor effects of chemotherapy via the GSK3β-SIRT7 axis” (Nature Communications, 2021)

Biological target: T1, His-GSK3β (UniProt P49841 1-420)
T1 construct: GSK3β, recombinant protein of the GST pull-down; The reagents list a bought recombinant human GSK3β protein (active) (Abcam ab60863); also called recombinant His-GSK3β; source: recombinant
Assay: pull-down; GST pull-down with recombinant GST-SIRT7 and His-GSK3β
Settings: both partners purified

T1 sequence (P49841 whole entry): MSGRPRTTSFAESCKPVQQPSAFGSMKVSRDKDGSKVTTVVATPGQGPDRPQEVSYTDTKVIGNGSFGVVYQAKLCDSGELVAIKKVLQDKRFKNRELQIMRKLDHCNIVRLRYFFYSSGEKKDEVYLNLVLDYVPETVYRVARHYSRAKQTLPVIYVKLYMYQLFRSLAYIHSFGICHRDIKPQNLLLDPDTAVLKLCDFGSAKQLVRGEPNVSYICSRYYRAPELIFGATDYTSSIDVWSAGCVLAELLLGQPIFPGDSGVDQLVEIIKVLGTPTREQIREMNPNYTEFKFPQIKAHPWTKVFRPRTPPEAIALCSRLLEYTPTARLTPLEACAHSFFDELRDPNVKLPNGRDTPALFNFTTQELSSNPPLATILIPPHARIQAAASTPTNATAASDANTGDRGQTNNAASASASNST

binding result: binds
B1: GST-SIRT7 (natural protein, human, UniProt Q9NRC8 1-400, looked up)
chain: MAAGGLSRSERKAAERVRRLREEQQRERLRQVSRILRKAAAERSAEEGRLLAESADLVTELQGRSRRREGLKRRQEEVCDDPEELRGKVRELASAVRNAKYLVVYTGAGISTAASIPDYRGPNGVWTLLQKGRSVSAADLSEAEPTLTHMSITRLHEQKLVQHVVSQNCDGLHLRSGLPRTAISELHGNMYIEVCTSCVPNREYVRVFDVTERTALHRHQTGRTCHKCGTQLRDTIVHFGERGTLGQPLNWEAATEAASRADTILCLGSSLKVLKKYPRLWCMTKPPSRRPKLYIVNLQWTPKDDWAALKLHGKCDDVMRLLMAELGLEIPAYSRWQDPIFSLATPLRAGEEGSHSRKSLCRSREEAPPGDRGAPLSSAPILGGWFGRGCTKRTKRKKVT
notes: SIRT7 cloned into pGEX-4T-3; also called GST-SIRT7-WT; recombinant GST-SIRT7; source: E. coli BL21, purified (glutathione agarose)
